Reference: patent US20260284189A1, “TREATMENT OF NON-SMALL CELL LUNG CANCER” (ASTRAZENECA AB, priority 2023, published 2026)
Several values for one entry are separate records, joined by “and”; a condition that tells them apart may be missing. Identical values can stand only once.

Assay: AEGEAN phase III: adverse events in the safety analysis set (CTCAE v5.0)
Conditions: safety analysis set N = 400; for Any immune-mediated event: patients: immune-mediated AE
[1] = overall study period, listed as durvalumab
[2] = possibly related to study treatment, Any Grade
[3] = possibly related to study treatment, Max. Grade 3 or 4

Text: Safety was monitored throughout the study and adverse events (AEs) were graded using the National Cancer Institute Common Toxicity Criteria for AEs version 5.0.

## Durvalumab: antibody that selectively binds PD-L1 and blocks binding of PD-L1 to PD-1 and CD80; arm given with platinum-based chemotherapy before surgery
Any Grade
  Any immune-mediated event: patients: (23.7) %
Any Grade, listed as durvalumab
  Any immune-mediated event: patients: 23.7% and 23.5%
Overall study period
  All-causality adverse events with outcome of death: number of patients: 23
  All-causality adverse events with outcome of death: patients: (5.8) %
  All-causality adverse events, maximum grade 3 or 4: number of patients: 169
  All-causality adverse events, maximum grade 3 or 4: patients: (42.3) %
  All-causality serious adverse events: number of patients: 150
  All-causality serious adverse events: patients: (37.5) %
  Any-grade adverse events possibly related to durvalumab/placebo/chemotherapy: number of patients: 346
  Any-grade adverse events possibly related to durvalumab/placebo/chemotherapy: patients: (86.5) %
  Any-grade all-causality adverse events: number of patients: 386
  Any-grade all-causality adverse events: patients: (96.5) %
  Possibly related adverse events with outcome of death: number of patients: 7
  Possibly related adverse events with outcome of death: patients: (1.8) %
  Possibly related adverse events, maximum grade 3 or 4: number of patients: 129
  Possibly related adverse events, maximum grade 3 or 4: patients: (32.3) %
[1]
  All-causality adverse events, maximum grade 3 or 4: patients: 42.3%
  Any-grade adverse events possibly related to durvalumab/placebo/chemotherapy: patients: 86.5%
  Any-grade all-causality adverse events: patients: 96.5%
  Possibly related adverse events with outcome of death: patients: 1.8%
  Possibly related adverse events, maximum grade 3 or 4: patients: 32.3%
[2]
  Alanine aminotransferase increased: number of patients with event: 30
  Alanine aminotransferase increased: patients with event: (7.5) %
  Alopecia: number of patients with event: 66
  Alopecia: patients with event: (16.5) %
  Anemia: number of patients with event: 104
  Anemia: patients with event: (26.0) %
  Arthralgia: number of patients with event: 21
  Arthralgia: patients with event: (5.3) %
  Asthenia: number of patients with event: 34
  Asthenia: patients with event: (8.5) %
  Constipation: number of patients with event: 44
  Constipation: patients with event: (11.0) %
  Decreased appetite: number of patients with event: 49
  Decreased appetite: patients with event: (12.3) %
  Diarrhea: number of patients with event: 34
  Diarrhea: patients with event: (8.5) %
  Fatigue: number of patients with event: 42
  Fatigue: patients with event: (10.5) %
  Hypothyroidism: number of patients with event: 37
  Hypothyroidism: patients with event: (9.3) %
  Leukopenia: number of patients with event: 33
  Leukopenia: patients with event: (8.3) %
  Nausea: number of patients with event: 84
  Nausea: patients with event: (21.0) %
  Neutropenia: number of patients with event: 60
  Neutropenia: patients with event: (15.0) %
  Neutrophil count decreased: number of patients with event: 61
  Neutrophil count decreased: patients with event: (15.3) %
  Platelet count decreased: number of patients with event: 29
  Platelet count decreased: patients with event: (7.3) %
  Pruritis: number of patients with event: 33
  Pruritis: patients with event: (8.3) %
  Rash: number of patients with event: 37
  Rash: patients with event: (9.3) %
  Thrombocytopenia: number of patients with event: 24
  Thrombocytopenia: patients with event: (6.0) %
  Vomiting: number of patients with event: 31
  Vomiting: patients with event: (7.8) %
  White blood cell count decreased: number of patients with event: 25
  White blood cell count decreased: patients with event: (6.3) %
[3]
  Alanine aminotransferase increased: number of patients with event: 2
  Alanine aminotransferase increased: patients with event: (0.5) %
  Alopecia: number of patients with event: 0
  Anemia: number of patients with event: 17
  Anemia: patients with event: (4.3) %
  Arthralgia: number of patients with event: 1
  Arthralgia: patients with event: (0.3) %
  Asthenia: number of patients with event: 0
  Constipation: number of patients with event: 0
  Decreased appetite: number of patients with event: 0
  Diarrhea: number of patients with event: 3
  Diarrhea: patients with event: (0.8) %
  Fatigue: number of patients with event: 0
  Hypothyroidism: number of patients with event: 0
  Leukopenia: number of patients with event: 9
  Leukopenia: patients with event: (2.3) %
  Nausea: number of patients with event: 1
  Nausea: patients with event: (0.3) %
  Neutropenia: number of patients with event: 36
  Neutropenia: patients with event: (9.0) %
  Neutrophil count decreased: number of patients with event: 38
  Neutrophil count decreased: patients with event: (9.5) %
  Platelet count decreased: number of patients with event: 7
  Platelet count decreased: patients with event: (1.8) %
  Pruritis: number of patients with event: 1
  Pruritis: patients with event: (0.3) %
  Rash: number of patients with event: 2
  Rash: patients with event: (0.5) %
  Thrombocytopenia: number of patients with event: 6
  Thrombocytopenia: patients with event: (1.5) %
  Vomiting: number of patients with event: 3
  Vomiting: patients with event: (0.8) %
  White blood cell count decreased: number of patients with event: 8
  White blood cell count decreased: patients with event: (2.0) %
